# B1: dye-labeled wild-type sTREM2 (TREM2 ectodomain) for TIRF imaging (domain or fragment, human, UniProt Q9NZC2 19-143, looked up)
# chain: HNTTVFQGVAGQSLQVSCPYDSMKHWGRRKAWCRQLGEKGPCQRVVSTHNLWLLSFLRRWNGSTAITDDTLGGTLTITLRNLQPHDAGLYQCQSLHGSEADTLRKVLVEVLADPLDHRDAGDLWF
# modifications: TAMRA dye (results) or AF647 (methods), position not stated
# notes: TREM2, human, residues 19-143 (soluble ectodomain); also called TAMRA-dye labeled sTREM2; AF647-TREM2; source: Freestyle 293-F, transfected (pHLSec), purified from conditioned medium (IMAC, gel filtration); dye-labeled
# Target: T1, HiLyte Fluor 488-labeled Aβ42 oligomers (human, UniProt P05067 672-713, HiLyte Fluor 488 label (position not given))
# T1 construct: amyloid beta peptide 1-42 (Aβ42), human; cut product of the amyloid precursor protein; Oligomeric species of the 6 h aggregation mixture, told apart from monomers by photobleaching; also called oligomeric Aβ; Aβ oligomers; source: bought: AnaSpec; aggregated at 0.5 μM in PBS pH 7.4 for 6 h in a shaking incubator
# Assay: single-molecule TIRF two-color coincidence detection; HiLyte Fluor 488 Aβ aggregated 6 h (0.5 μM, PBS pH 7.4), dye-labeled sTREM2 added and imaged; monomers and oligomers told apart by photobleaching; chance coincidence subtracted
# Settings: both partners purified
binder,measurement,value
B1,binding result,binds

# Source: paper PMC8113883, “Wild-type sTREM2 blocks Aβ aggregation and neurotoxicity, but the Alzheimer's R47H mutant increases Aβ aggregation” (The Journal of Biological Chemistry, 2021)
